B1: Activating molecule in BECN1-regulated autophagy protein 1 (Homo sapiens), Q9C0C7-3 (parent)
chain: MKVVPEKNAVRILWGRERGARAMGAQRLLQELVEDKTRWMKWEGKRVELPDSPRSTFLLAFSPDRTLLASTHVNHNIYITEVKTGKCVHSLIGHRRTPWCVTFHPTISGLIASGCLDGEVRIWDLHGGSESWFTDSNNAIASLAFHPTAQLLLIATANEIHFWDWSRREPFAVVKTASEMERVRLVRFDPLGHYLLTAIVNPSNQQGDDEPEIPIDGTELSHYRQRALLQSQPVRRTPLLHNFLHMLSSRSSGIQVGEQSTVQDSATPSPPPPPPQPSTERPRTSAYIRLRQRVSYPTAECCQHLGILCLCSRCSGTRVPSLLPHQDSVPPASARATTPSFSFVQTEPFHPPEQASSTQQDQGLLNRPSAFSTVQSSTAGNTLRNLSLGPTRRSLGGPLSSHPSRYHREIAPGLTGSEWTRTVLSLNSRSEAESMPPPRTSASSVSLLSVLRQQEGGSQASVYTSATEGRGFPASGLATESDGGNGSSQNNSGSIRHELQCDLRRFFLEYDRLQELDQSLSGEAPQTQQAQEMLNNNIESERPGPSHQPTPHSSENNSNLSRGHLNRCRACHNLLTFNNDTLRWERTTPNYSSGEASSSWQVPSSFESVPSSGSQLPPLERTEGQTPSSSRLELSSSASPQEERTVGVAFNQETGHWERIYTQSSRSGTVSQEALHQDMPEESSEEDSLRRLSPAAYYAQRMIQYLSRRDSIRQRSMRYQQNRLRSSTSSSSSDNQGPSVEGTDLEFEDFEDNGDRSRHRAPRNARMSAPSLGRFVPRRFLLPEYLPYAGIFHERGQPGLATHSSVNRVLAGAVIGDGQSAVASNIANTTYRLQWWDFTKFDLPEISNASVNVLVQNCKIYNDASCDISADGQLLAAFIPSSQRGFPDEGILAVYSLAPHNLGEMLYTKRFGPNAISVSLSPMGRYVMVGLASRRILLHPSTEHMVAQVFRLQQAHGGETSMRRVFNVLYPMPADQRRHVSINSARWLPEPGLGLAYGTNKGDLVICRPEALNSGVEYYWDQLNETVFTVHSNSRSSERPGTSRATWRTDRDMGLMNAIGLQPRNPATSVTSQGTQTLALQLQNAETQTEREVPEPGTAASGPGEGEGSEYGASGEDALSRIQRLMAEGGMTAVVQREQSTTMASMGGFGNNIIVSHRIHRSSQTGTEPGAAHTSSPQPSTSRGLLPEAGQLAERGLSPRTASWDQPGTPGREPTQPTLPSSSPVPIPVSLPSAEGPTLHCELTNNNHLLDGGSSRGDAAGPRGEPRNR
partner: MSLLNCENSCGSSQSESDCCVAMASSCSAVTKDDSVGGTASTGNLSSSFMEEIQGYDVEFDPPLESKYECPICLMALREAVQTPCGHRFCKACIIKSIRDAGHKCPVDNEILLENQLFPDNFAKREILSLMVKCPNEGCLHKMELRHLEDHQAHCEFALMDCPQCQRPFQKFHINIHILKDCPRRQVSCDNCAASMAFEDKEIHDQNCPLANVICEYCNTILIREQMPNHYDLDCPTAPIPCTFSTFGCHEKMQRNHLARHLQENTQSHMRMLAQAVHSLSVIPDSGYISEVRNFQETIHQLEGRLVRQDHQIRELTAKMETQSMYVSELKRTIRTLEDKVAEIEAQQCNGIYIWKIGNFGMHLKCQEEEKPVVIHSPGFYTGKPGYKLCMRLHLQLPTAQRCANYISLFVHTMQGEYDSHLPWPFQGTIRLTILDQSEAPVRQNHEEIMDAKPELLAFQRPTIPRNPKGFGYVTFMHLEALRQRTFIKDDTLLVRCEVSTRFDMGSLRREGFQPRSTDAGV

Variants of: B1
Conditions: with traf6_human TRAF6, Q9Y4K3

| Variant | effect of a mutation on the interaction |
| --- | --- |
| E620A | disrupting interaction strength |
